Experimental data published in publication PMC4918322.

Target: PLK1 (UniProt P53350)
Test: anti-V5 co-immunoprecipitation, PLK1 blot
Conditions: reference: wild-type RSF1-C1; sites S1375

binding against the reference: lost
Substance: RSF1 C1, 627-1441 (from UniProt Q96T23) S1375A
